For experiment [1], the target named is PfRipr (residues 20 to 1086) (P. falciparum) (UniProt O97302). The experiment is described as follows: BLI; PfRipr or PfPTRAMP at 20 μg/ml immobilised on Anti-Penta-His (His1K) biosensors, twofold dilution series of PTRAMP–CSS or PfCSS; 25 °C, PBS pH 7.4, 0.1% BSA, 0.02% Tween-20; 1:1 model.
The target in experiment [2] is PfPTRAMP (residues 25 to 309) with a C-terminal His-tag (P. falciparum). The experiment is described as above.

One may read the pKd as −log10 of the Kd, conventionally taken in molar units.

pKd: −log10 of the molar value.

Consider “PfCSS (residues 20 to 290) (domain or fragment)”, for which the results for the pKd in experiment [1] and in experiment [2] were 5.96 and 4.72, respectively.
In experiment [1], “PTRAMP–CSS heterodimer (disulfide-linked PfPTRAMP 42–309 and PfCSS 20–290) (complex)” had a pKd of 5.44.

The record behind these values is publication PMC9712106.
